Assay [1] deals with T1, human BKB2R-derived epitope peptide, SE ID NO:73 (Homo sapiens, UniProt P30411).
T1 construct: purchased Biosyn, Lewisville, Tex
As to the kind of experiment: ForteBio Octet binding kinetics to the BKB2R epitope peptide. The protocol: Proteins corresponding to all combinations of humanized or chimeric (5F12G1 VH and VL on human IgG2 backbone) antibodies were tested for binding to the human BKB2R-derived epitope peptide, SE ID NO:73.
A ForteBio (Menlo Park, Calif., USA) Octet® platform was used to analyze the binding affinities and binding characteristics of the humanized monoclonal antibodies to the peptide epitope (SEQ ID NO:73) and compared to the original mouse monoclonal 5F12G1. This platform employed label-free technology for measuring biomolecular interactions by optical analysis of the interference pattern of white light reflected from two surfaces: a layer of immobilized protein on the biosensor tip, and an internal reference layer. Any change in the number of molecules bound to the biosensor tip caused a shift in the interference pattern that was measured in real-time. Binding specificity, and rates of association and dissociation were monitored.
(§1) For the Octet study, antibodies were analyzed by kinetic titration of the antibodies. Antibodies were prepared in kinetic buffer (0.001 M phosphate buffered saline (NaCl 0.0138 M; KCl-0.00027 M); pH 7.4, at 25° C., 0.1 mg/ml BSA, 0.002% Tween and 0.005% Sodium Azide) followed by 1:2 serial dilutions.
(§2) Sensor Prep: Streptavidin biosensors (FortéBio Inc, Menlo Park, Calif.) were coated by incubation in a solution containing a peptide ([…]-PEG-biotin) (Biosyn, Lewisville, Tex.) at 50 μg/ml (300 seconds/1000 rpm shaking). 96 well half-volume plates were used for testing. 90 μl of sample was plated per well. Sensors were allowed to equilibrate to baseline in kinetic buffer (60 seconds/1000 rpm). The sensors were then placed into the various antibody dilutions to allow binding (association) to the probe for 500 seconds/1000 rpm, and measurements were taken. The sensors were then moved into kinetic buffer without antibody for dissociation (500 seconds/1000 rpm), and measurements were taken. Octet system software calculated kinetic constants for on rate/off rate/affinity.
[…] […] Each concentration was tested twice. The HC and LC represented the mouse original 5F12G1 VH and VL sequences.
On the technique in general: In BLI a coated tip is dipped into the sample, and binding shifts an interference pattern.

In assay [2] the target is T2, human BKB2R-derived epitope peptide (SEQ ID NO:73), PEG-biotin (human, also: PEG-biotin, site not given here).
T2 construct: also called immunogenic human BKB2R peptide fragment
T2 peptide: KEYSDEGHNVTAC
As to the kind of experiment: BLI (Octet), peptide-PEG-biotin on streptavidin sensor, antibody 250 nM. The protocol: as §1, §2
(§3) For test humanized monoclonal antibodies, the highest concentration used was 500 nM followed by 1:2 dilutions. Each concentration was tested twice. The HC and LC represented the mouse original 5F12G1 VH and VL sequences.

Assay [3] concerns the target T2, human BKB2R-derived epitope peptide …. As to the kind of experiment: BLI (Octet), peptide-PEG-biotin on streptavidin sensor, antibody 500 nM. The method, then: as §1, §2, §3

Where no end group is shown, it is not given here.

B1: H39/L38: humanized anti-BKB2R mAb, heavy chain H39 (SEQ ID NO:7), light chain L38 (SEQ ID NO:11) (antibody, V domains shown)
VH: EVKLVESGGGLVQPGGSLRLSCAVSGFTFSDYWMDWVRQAPGKGLEWVAEIRLKSDNYATHYAASVKGRFTISRDDSKSRLYLQMNSLKTEDTAVYYCTRDYYAMEYWGQGTTVTVSS
VL: DIVMTQTPLSLPVTSGEPASISCRSSQTIVHSNGKTYLDWYLQKPGQSPQLLIYKVSNRASGVPDRFSGSGSGTDFTLKISRVEAEDVGVYYCFQASHVPYTFGGGTKVEIK
modifications: Humanized H39 Heavy Chain Variable Region VH; Humanized L38 Light Chain Variable Region VL
One may read the kon as the rate constant with which the complex forms. As to B1, in assay [1] (Conc. 500 nM), the “kdis” value came to 4.9 s⁻¹ and the “kon” value was 6.44e+06 M⁻¹ s⁻¹.

B2: H39/L39: humanized anti-BKB2R mAb, heavy chain H39 (SEQ ID NO:7), light chain L39 (SEQ ID NO:12) (antibody, V domains shown)
VH: EVKLVESGGGLVQPGGSLRLSCAVSGFTFSDYWMDWVRQAPGKGLEWVAEIRLKSDNYATHYAASVKGRFTISRDDSKSRLYLQMNSLKTEDTAVYYCTRDYYAMEYWGQGTTVTVSS
VL: DVVMTQTPLSLSVTPGQPASISCKSSQTIVHSNGKTYLEWYLQKPGQSPQLLIYKVSNRFSGVPDRFSGSGSGTDFTLKISRVEAEDVGVYYCFQASHVPYTFGQGTKLEIK
modifications: Humanized H39 Heavy Chain Variable Region VH; Humanized L39 Light Chain Region VL
As for B2, in assay [1] (Conc. 500 nM), the “kdis” value is 1.26 s⁻¹ and the “kon” value stood at 729000 M⁻¹ s⁻¹.

B3: humanized anti-BKB2R antibody L1/H2 (antibody, human IgG2, kappa, V domains shown)
VH: EVQLVESGGGLVQPGGSLRLSCVASGFTFSDYWMSWVRQAPGKGLEWVAEIRLKSDNYATHYAESVKGRFTISRDDAKNSLYLQMNSLRAEDTAVYYCTRDYYAMEYWGQGTLVTVSS
VL: DIVMTQSPLSLPVTPGEPASISCRSSQTIVHSNGKTYLEWYLQKPGQSPQLLIYKVSNRFSGVPDRFSGSGSGTDFTLKISRVEAEDVGVYYCFQASHVPYTFGQGTKLEIKR
One may read the Kd as the free concentration of one partner at which half of the binding sites on the other are occupied at equilibrium, for simple one-to-one binding. A high value points to weaker binding. One may read the koff as the first-order rate constant of dissociation. Regarding B3, in assay [2], the affinity, expressed as Kd, was 2.05 µM; the “Max Response” value came to 0.174; the koff amounted to 0.719 s⁻¹; the kon was 350000 M⁻¹ s⁻¹. In assay [3], the Kd is 0.403 µM, the “Max Response” value is 0.161, the koff turned out to be 0.976 s⁻¹ and the kon was determined as 2.43e+06 M⁻¹ s⁻¹.

B4: H37/L38: humanized anti-BKB2R mAb, heavy chain H37 (SEQ ID NO:5), light chain L38 (SEQ ID NO:11) (antibody, V domains shown)
VH: EVQLVESGGGLVQPGGSLRLSCAASGFTFSDYWMDWVRQAPGKGLEWVGEIRLKSDNYATHYAASVKGRFTISRDDSKNSLYLQMNSLKTEDTAVYYCTRDYYAMEYWGQGTTVTVSS
VL: DIVMTQTPLSLPVTSGEPASISCRSSQTIVHSNGKTYLDWYLQKPGQSPQLLIYKVSNRASGVPDRFSGSGSGTDFTLKISRVEAEDVGVYYCFQASHVPYTFGGGTKVEIK
modifications: Humanized H37 Heavy Chain Variable Region VH; Humanized L38 Light Chain Variable Region VL
In the case of B4, in assay [1] (Conc. 500 nM), the “kdis” value turned out to be 2.08 s⁻¹ and the association rate constant (kon) came to 9.47e+06 M⁻¹ s⁻¹.

B5: H37/L39: humanized anti-BKB2R mAb, heavy chain H37 (SEQ ID NO:5), light chain L39 (SEQ ID NO:12) (antibody, V domains shown)
VH: EVQLVESGGGLVQPGGSLRLSCAASGFTFSDYWMDWVRQAPGKGLEWVGEIRLKSDNYATHYAASVKGRFTISRDDSKNSLYLQMNSLKTEDTAVYYCTRDYYAMEYWGQGTTVTVSS
VL: DVVMTQTPLSLSVTPGQPASISCKSSQTIVHSNGKTYLEWYLQKPGQSPQLLIYKVSNRFSGVPDRFSGSGSGTDFTLKISRVEAEDVGVYYCFQASHVPYTFGQGTKLEIK
modifications: Humanized H37 Heavy Chain Variable Region VH; Humanized L39 Light Chain Region VL
For the molecule B5, in assay [1] (Conc. 500 nM), the “kdis” value was 1.98 s⁻¹ and the “kon” value is 1.11e+06 M⁻¹ s⁻¹.

B6: L2/H2: humanized anti-BKB2R mAb, light chain L2 (SEQ ID NO:9), heavy chain H2 (SEQ ID NO:4) (antibody, V domains shown)
VH: EVQLVESGGGLVQPGGSLRLSCVASGFTFSDYWMSWVRQAPGKGLEWVAEIRLKSDNYATHYAESVKGRFTISRDDAKNSLYLQMNSLRAEDTAVYYCTRDYYAMEYWGQGTLVTVSS
VL: DIVMTQSPLSLPVTPGEPASISCRSSQTIVHSNGKTYLEWYLQKPGQSPQLLIYKVSNRFSGVPDRFSGSGSGTEFTLKISRVEAEDVGVYYCFQASHVPYTFGQGTKLEIK
modifications: Humanized H2 Heavy Chain Variable Region VH; Humanized L2 Light Chain Variable Region VL
As for B6, in assay [1] (Conc. 250 nM), the “kdis” value stood at 0.0359 s⁻¹ and the “kon” value was 1.76e+06 M⁻¹ s⁻¹. For the same molecule, in assay [1] (Conc. 500 nM), the “kdis” value turned out to be 0.0223 s⁻¹ and the “kon” value amounted to 992000 M⁻¹ s⁻¹.

B7: L2/H1: humanized anti-BKB2R mAb, light chain L2 (SEQ ID NO:9), heavy chain H1 (SEQ ID NO:3) (antibody, V domains shown)
VH: EVQLVESGGGLVQPGGSLRLSCAASGFTFSDYWMSWVRQAPGKGLEWVAEIRLKSDNYATHYAESVKGRFTISRDNAKNSLYLQMNSLRAEDTAVYYCTRDYYAMEYWGQGTLVTVSS
VL: DIVMTQSPLSLPVTPGEPASISCRSSQTIVHSNGKTYLEWYLQKPGQSPQLLIYKVSNRFSGVPDRFSGSGSGTEFTLKISRVEAEDVGVYYCFQASHVPYTFGQGTKLEIK
modifications: Humanized H1 Heavy Chain Variable Region VH; Humanized L2 Light Chain Variable Region VL
Regarding B7, the “kdis” value in assay [1] (Conc. 250 nM) stood at 0.00438 s⁻¹; in assay [1] (Conc. 500 nM) it was 0.00507 s⁻¹. The “kon” value in assay [1] (Conc. 250 nM) was determined as 216000 M⁻¹ s⁻¹; in assay [1] (Conc. 500 nM), 1.21e+06 M⁻¹ s⁻¹.

B8: H37/L37: humanized anti-BKB2R mAb, heavy chain H37 (SEQ ID NO:5), light chain L37 (SEQ ID NO:10) (antibody, V domains shown)
VH: EVQLVESGGGLVQPGGSLRLSCAASGFTFSDYWMDWVRQAPGKGLEWVGEIRLKSDNYATHYAASVKGRFTISRDDSKNSLYLQMNSLKTEDTAVYYCTRDYYAMEYWGQGTTVTVSS
VL: DIVMTQTPLSLSVTPGQPASISCKSSQTIVHSNGKTYLYWYLQKPGQSPQLLIYKVSSRFSGVPDRFSGSGSGTDFTLKISRVEAEDVGVYYCFQASHVPYTFGQGTKLEIK
modifications: Humanized H37 Heavy Chain Variable Region VH; Humanized L37 Light Chain Variable Region VL
Turning to B8, in assay [1] (Conc. 500 nM), the “kdis” value is 1.18 s⁻¹ and the “kon” value was found to be 1.55e+06 M⁻¹ s⁻¹.

B9: H38/L37: humanized anti-BKB2R mAb, heavy chain H38 (SEQ ID NO:6), light chain L37 (SEQ ID NO:10) (antibody, V domains shown)
VH: EVQLLESGGGLVQPGGSLKLSCAVSGFTFSDYWMSWVRQAPGKGLEWVSEIRLKSDNYATHYADSVKGRFTISRDDSKNTLYLQMNSLRAEDTAVYYCTRDYYAMEYWGQGTLVTVSS
VL: DIVMTQTPLSLSVTPGQPASISCKSSQTIVHSNGKTYLYWYLQKPGQSPQLLIYKVSSRFSGVPDRFSGSGSGTDFTLKISRVEAEDVGVYYCFQASHVPYTFGQGTKLEIK
modifications: Humanized H38 Heavy Chain Variable Region VH; Humanized L37 Light Chain Variable Region VL
With B9, in assay [1] (Conc. 500 nM), the “kdis” value turned out to be 29.4 s⁻¹ and the “kon” value stood at 9.44e+06 M⁻¹ s⁻¹.

B10: L1/H2: humanized anti-BKB2R mAb, light chain L1 (SEQ ID NO:8), heavy chain H2 (SEQ ID NO:4) (antibody, V domains shown)
VH: EVQLVESGGGLVQPGGSLRLSCVASGFTFSDYWMSWVRQAPGKGLEWVAEIRLKSDNYATHYAESVKGRFTISRDDAKNSLYLQMNSLRAEDTAVYYCTRDYYAMEYWGQGTLVTVSS
VL: DIVMTQSPLSLPVTPGEPASISCRSSQTIVHSNGKTYLEWYLQKPGQSPQLLIYKVSNRFSGVPDRFSGSGSGTDFTLKISRVEAEDVGVYYCFQASHVPYTFGQGTKLEIK
modifications: Humanized H2 Heavy Chain Variable Region VH; Humanized L1 Light Chain Variable Region VL
Regarding B10, the figures for the “kdis” value in assay [1] (Conc. 250 nM) and in assay [1] (Conc. 500 nM) were 0.719 s⁻¹ and 0.976 s⁻¹, respectively. Moreover, the entries for the “kon” value in assay [1] (Conc. 250 nM) and in assay [1] (Conc. 500 nM) were 350000 M⁻¹ s⁻¹ and 2.43e+06 M⁻¹ s⁻¹, respectively.

The values are drawn from patent US20140017242A1, “ANTI-BRADYKININ B2 RECEPTOR (BKB2R) MONOCLONAL ANTIBODY” (Diamedica, Inc., priority 2010, published 2014).
